Earlier results as cited in US20030175285A1, “Molecule of pharmaceutical interest comprising at its n-terminal a glutamic acid or a glutamine in the form of a physiologically acceptable strong acid” (priority 2000, published 2003).

Details: in 2 months, formulated with adjuvant solution of the Montanide ISA 720 type

## EEGAIVGEI
  spontaneous cyclization to pyroglutamate: 30%
